The source of these data is publication PMC11096381.

The target in this assay is serum immunoglobulin M (IgM), endogenous mouse (mouse (endogenous in C57BL/6 mice)). As to the kind of experiment: SEC + other: SDS-PAGE with western blot keeping disulfide bonds; peritoneal fluid and serum of healthy WT mice (0 h); 7.5% SDS-PAGE under conditions that prevent disruption of CD5L-IgM disulfide bonds, western blot for CD5L, densitometry of IgM-bound and free bands; WT serum also fractionated on Superose 12 10/300 GL in PBS and fractions blotted for CD5L and IgM.

B1: CD5 antigen-like (CD5L), endogenous mouse protein (natural protein)
chain: ESPTKVQLVGGAHRCEGRVEVEHNGQWGTVCDDGWDRRDVAVVCRELNCGAVIQTPRGASYQPPASEQRVLIQGVDCNGTEDTLAQCELNYDVFDCSHEEDAGAQCENPDSDLLFIPEDVRLVDGPGHCQGRVEVLHQSQWSTVCKAGWNLQVSKVVCRQLGCGRALLTYGSCNKNTQGKGPIWMGKMSCSGQEANLRSCLLSRLENNCTHGEDTWMECEDPFELKLVGGDTPCSGRLEVLHKGSWGSVCDDNWGEKEDQVVCKQLGCGKSLHPSPKTRKIYGPGAGRIWLDDVNCSGKEQSLEFCRHRLWGYHDCTHKEDVEVICTDFDV
In the case of B1, the percent of CD5L bound to IgM is > 90%.
